Laboratory results published in the RNAGym collection of RNA variant scans (doi:10.1073/pnas.2313332121).
This sample holds only a part of the variants without activity.

B1: TPR 5TU (parent)
chain: GGAUCUUCUCGAUCUAACAAAAAAGACAAAUCUGCCACAAAGCUUGAGAGCAUCUUCGGAUGCAGAGGCGGCAGCCUUCGGUGGCGCGAUAGCGCCAACGUUCUCAACUAUGACACGCAAAACGCGUGCUCCGUUGAAUGGAGUUUAUCAUG

Variants of: B1
Assay: polymerase ribozyme fitness, log enrichment relative to wild type (log ratio); higher = more active; in vitro selection for triplet polymerase activity
In short: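 Input and output libraries were sequenced on Illumina after a single in vitro selection round, run in triplicate on PCR-built, transcribed mutant libraries of each subunit of a heterodimeric triplet polymerase ribozyme. Selection annealed libraries to a biotinylated primer, the partner subunit and triplets, incubated them frozen at −7 °C, then gel-excised extended constructs for streptavidin-bead capture and RT-PCR. Genotypes with ≥10 input reads and ≥1 read per output were kept. Fitness is the logarithm, taken in base 2, of genotype enrichment divided by wild-type enrichment, using inverse-variance-weighted replicate averages.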

| Variant | polymerase ribozyme fitness (log ratio) |
| --- | --- |
| C38U U56A A147C | -0.21 |
| C96G A142C | -1.82 |
| U55A U61A C93U C103A | ≤ -4.2 |
| C8A C10G C18U A21U C54A C87U A120G | ≤ -4.2 |
| G48A A106G | -1.77 |
| A41G C54G G117U G124C | -1.19 |
| A52C G58A A147U | -0.233 |
| C76G G94C | ≤ -4.2 |
| U56C C85A C131G | -3.7 |
| A19U A40C A91U C95G | ≤ -4.2 |
| A24C G34C G50C U134A | ≤ -4.2 |
| A29U A41U U53G G88U A89G G117A | ≤ -4.2 |
| C14G A19U G34U C87G G100A A142C | ≤ -4.2 |
| C10A G48C U82G A97U | ≤ -4.2 |
| G133A G141U | -3.08 |
| U15G G42A C75A G83U A122U G128A | ≤ -4.2 |
| A39G U101C | -1.89 |
| A19C G117C | 0.678 |
| A23C U31C C99U C123U U134C | ≤ -4.2 |
| G58U G141C | 0.501 |
| C54G G67A U77C C87A C99U U130G | ≤ -4.2 |

| Variant | polymerase ribozyme fitness (log ratio) |
| --- | --- |
| C75U A137C | -3.47 |
| U55A U77A | ≤ -4.2 |
| G11A G48C G92U | -0.981 |
| A24U C38A G50U U55A U61G G68C G84U G141A U151G | ≤ -4.2 |
| U56A C125U A142C | -3.74 |
| A12U G141C | -0.54 |
| C32G G94C | -4.18 |
| C14U C57G C85U G152A | -3.89 |
| A49G C87A A89C U90A C129U | ≤ -4.2 |
| C85U A142G | -1.38 |
| U4C A49G C51A C87A C132U A150C | ≤ -4.2 |
| U33G G117A U134C | -2.88 |
| A3C A24G A73U C93A | ≤ -4.2 |
| A29U G59C G88U C95G | ≤ -4.2 |
| C54U A60G C95U | -0.803 |
| U53G G84A | -2.52 |
| C96G C125G U130G C132A | ≤ -4.2 |
| C72U G92U U135A G143A | -3.54 |
| A12U C57G G65A | -3.18 |
| C5G A37C G81A | -1.37 |
| A21G A37U G59A A60C | -3.22 |

| Variant | polymerase ribozyme fitness (log ratio) |
| --- | --- |
| C5A G141U | 0.735 |
| A22C A28U G58C A91C | ≤ -4.2 |
| U53A U55A C57A C85G A122G | -2.51 |
| A122G C125A U134G | -2.92 |
| C27U G84A | -1.66 |
| C54U C57A C75U A91G | -3.62 |
| G50A G65A A89U U101A A106C | -4.2 |
| G11U U13A A17U A26U A41C U45A C87A C108U A142C A147U | ≤ -4.2 |
| C118G A122C | -1.49 |
| G86U A89C A119C | -3.83 |
| G11C C36U U78C C85G A120C C123A G124A U151C | ≤ -4.2 |
| A30G G58U C118U | -3.95 |
| C14G G65U G67U G133A U135A | ≤ -4.2 |
| A17U C76U C96U | 0.123 |
| C27U A47C G128U | ≤ -4.2 |
| C27U C38U A52U C85G G88U U102G | ≤ -4.2 |
| G74C U82C | -4.05 |
| G25C C57U C123A C125G | -2.33 |
| U56A C99U | -0.614 |
| A16U A20C A91U G141U | ≤ -4.2 |
| U44A C87A G126U | ≤ -4.2 |

| Variant | polymerase ribozyme fitness (log ratio) |
| --- | --- |
| C8A A17G A73U U78G C87U | ≤ -4.2 |
| A12G A41G C85G A106G | -1.5 |
| U55C C85A | -1.24 |
| G58A G86A A110G A115C U151G | ≤ -4.2 |
| G83A C87U C123G A142G | -2.09 |
| C36U A52G G70U G84A | -2.84 |
| A49C C99G | ≤ -4.2 |
| C93A U127A G133U G140U | ≤ -4.2 |
| U56G U78C C85A C123U | -1.43 |
| U56G C57A G81A A107C G117A | ≤ -4.2 |
| G59A G84U G92C C95G G124C | -2.69 |
| A89U C103U A106C G117A | -2.14 |
| C5U A49C G81U C93G | ≤ -4.2 |
| C96A U127A | -3.79 |
| C35A A52C G67U G68C C76U A115U A120C U134C | ≤ -4.2 |
| A39G A147U | -0.693 |
| A52G C63U C93U | -1.7 |
| U44A A47C | ≤ -4.2 |
| A20G C95A A110G | -3.46 |
| C35A U77C G83A A106C G126A U134G | ≤ -4.2 |
